Assay [1] has as its target human ILT3 on the cell surface (recombinant human ILT3 exogenously overexpressed on HEK cells; ILT3 on THP-1 cells, DCs, macrophages) (human) (UniProt Q8NHJ6). The assay is described as follows: cell-based or functional assay.
For assay [2] the target is unchanged. The assay is described as follows: flow cytometry on HEK cells overexpressing recombinant human ILT3.

These results are taken from patent publication US20250277032A1.

Chain of fibronectin (FN1), P02751 32-2477 (ligand) (P02751 32-2477 limits assumed): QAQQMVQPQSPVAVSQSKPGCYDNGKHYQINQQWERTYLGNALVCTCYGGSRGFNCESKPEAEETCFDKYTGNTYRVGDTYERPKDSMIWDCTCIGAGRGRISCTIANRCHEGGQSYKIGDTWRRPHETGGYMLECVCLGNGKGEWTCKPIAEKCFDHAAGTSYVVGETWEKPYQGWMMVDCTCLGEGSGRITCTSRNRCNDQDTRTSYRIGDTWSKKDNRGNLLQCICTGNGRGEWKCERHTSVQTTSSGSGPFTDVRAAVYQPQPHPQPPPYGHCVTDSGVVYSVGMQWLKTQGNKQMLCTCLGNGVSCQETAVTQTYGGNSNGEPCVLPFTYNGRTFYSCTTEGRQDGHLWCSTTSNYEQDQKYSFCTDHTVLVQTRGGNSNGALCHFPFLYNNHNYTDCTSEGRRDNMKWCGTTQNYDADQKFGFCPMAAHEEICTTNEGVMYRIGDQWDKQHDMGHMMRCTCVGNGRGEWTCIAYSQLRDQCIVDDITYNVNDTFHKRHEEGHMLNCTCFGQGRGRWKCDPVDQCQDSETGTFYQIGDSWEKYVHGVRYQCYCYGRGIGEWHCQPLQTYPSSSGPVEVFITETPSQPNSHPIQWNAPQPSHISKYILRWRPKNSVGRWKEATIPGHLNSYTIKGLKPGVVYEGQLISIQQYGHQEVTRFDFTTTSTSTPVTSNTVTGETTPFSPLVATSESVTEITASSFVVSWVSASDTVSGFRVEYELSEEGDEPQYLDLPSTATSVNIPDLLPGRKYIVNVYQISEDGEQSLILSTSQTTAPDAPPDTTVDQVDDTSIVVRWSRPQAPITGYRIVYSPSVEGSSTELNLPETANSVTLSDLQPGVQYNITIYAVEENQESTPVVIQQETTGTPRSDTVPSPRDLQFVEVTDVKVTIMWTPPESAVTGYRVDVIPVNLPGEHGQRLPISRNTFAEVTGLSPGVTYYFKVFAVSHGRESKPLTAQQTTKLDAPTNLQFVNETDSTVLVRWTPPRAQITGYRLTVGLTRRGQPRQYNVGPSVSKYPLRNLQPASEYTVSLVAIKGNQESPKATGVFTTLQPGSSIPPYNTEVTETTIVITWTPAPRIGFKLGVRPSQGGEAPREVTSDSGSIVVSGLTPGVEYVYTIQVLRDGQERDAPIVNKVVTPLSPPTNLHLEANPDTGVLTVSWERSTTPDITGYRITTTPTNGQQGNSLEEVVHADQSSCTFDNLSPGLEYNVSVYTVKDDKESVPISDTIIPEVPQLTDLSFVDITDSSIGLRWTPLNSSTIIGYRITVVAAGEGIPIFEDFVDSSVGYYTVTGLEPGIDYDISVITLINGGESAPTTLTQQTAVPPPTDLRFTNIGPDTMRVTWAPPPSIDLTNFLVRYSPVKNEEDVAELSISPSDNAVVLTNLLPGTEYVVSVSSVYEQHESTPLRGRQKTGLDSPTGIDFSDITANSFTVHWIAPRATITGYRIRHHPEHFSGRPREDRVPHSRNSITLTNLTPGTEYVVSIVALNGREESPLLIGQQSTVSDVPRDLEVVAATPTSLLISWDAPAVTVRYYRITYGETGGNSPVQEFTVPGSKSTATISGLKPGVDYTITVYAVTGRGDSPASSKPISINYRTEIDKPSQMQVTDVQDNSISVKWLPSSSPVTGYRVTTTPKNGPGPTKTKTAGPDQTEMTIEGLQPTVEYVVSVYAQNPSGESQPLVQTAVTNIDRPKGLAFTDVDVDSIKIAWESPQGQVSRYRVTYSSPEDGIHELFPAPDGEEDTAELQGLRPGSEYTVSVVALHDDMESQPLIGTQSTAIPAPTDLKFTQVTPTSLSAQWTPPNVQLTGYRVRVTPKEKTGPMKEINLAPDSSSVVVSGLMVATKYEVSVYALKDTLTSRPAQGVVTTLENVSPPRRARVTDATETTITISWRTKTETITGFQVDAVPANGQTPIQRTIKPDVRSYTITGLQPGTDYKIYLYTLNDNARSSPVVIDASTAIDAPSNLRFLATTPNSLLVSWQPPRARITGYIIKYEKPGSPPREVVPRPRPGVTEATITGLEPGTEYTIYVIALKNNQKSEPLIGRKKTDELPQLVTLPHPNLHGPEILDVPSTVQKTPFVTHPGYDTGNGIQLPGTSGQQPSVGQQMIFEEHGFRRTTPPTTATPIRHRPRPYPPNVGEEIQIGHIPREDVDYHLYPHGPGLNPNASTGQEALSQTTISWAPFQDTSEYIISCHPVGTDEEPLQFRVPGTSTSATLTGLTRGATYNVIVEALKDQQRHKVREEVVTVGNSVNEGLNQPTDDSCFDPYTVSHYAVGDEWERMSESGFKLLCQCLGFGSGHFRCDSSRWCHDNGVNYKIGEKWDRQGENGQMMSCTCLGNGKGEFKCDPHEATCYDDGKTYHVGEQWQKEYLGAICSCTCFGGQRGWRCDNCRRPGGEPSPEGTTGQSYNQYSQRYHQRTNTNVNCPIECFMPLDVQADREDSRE

As to “fibronectin (FN1), P02751 32-2477 (ligand)”, in assay [1], the decrease in IL-8 secretion from THP-1 cells activated with immobilized Rituximab came to 67%.
On to ZM4.1 (commercial anti-ILT3 antibody), for which the average fluorescence in assay [2] came out at 118.
